The nature of this data set: soluble on expression in E. coli; label from the status in PepcDB or PDB records.
“MSLSLLSKFSRGVPSPALAHIAKRTFSSVNFSQILRRPQNSSLRLRLVRNISNSNPLPKMTEAGKNIVLKRHDLIVKGAQDAREYRGLELTNGIRVLLVSDPTTDKSAAALDVKVGHLMDPWELPGLAHFCEHMLFLGTAKYPSENEYSKFLAAHAGSSNAYTSSDHTNYHFDVKPDQLPGALDRFVQFFLSPQFTESATEREVCAVDSEHSNNLNNDLWRFLQVDRSRSKPGHDYGKFGTGNKQTLLEDARKKGIEPRDALLQFHKKWYSSDIMTCCIVGKEPLNVLESYLGTLEFDAIENKKVERKVWEEFPYGPDQLAKRIDVVPIKDTRLVSISFPFPDLNGEFLSQPGHYISHLIGHEGPGSLLSELKRLGWVSSLQSDSHTQAAGFGVYNVTMDLSTEGLEHVDEIIQLMFNYIGMLQSAGPKQWVHDELAELSAVKFRFKDKEQPMTMAINVAASLQYIPFEHILSSRYLLTKYEPERIKELLSMLSPANMQVRVVSQKFKGQEGNTNEPVYGTEMKVTDISPETMKKYENALKTSHHALHLPEKNEYIATNFDQKPRESVKNEHPRLISDDGWSRVWFKQDDEYNMPKQETKLALTTPMVAQNPRMSLLSSLWLWCLSDTLAEETYNADLAGLKCQLESSPFGVQMRVSNRREAERHASLTLHVYGYDEKQALFAKHLANRMTNFKIDKTRFDVLFESLKRALTNHAFSQPYLLTQHYNQLLIVDKVWSKEQLLAVCDSVTLEDVQGFAKEMLQAFHMELFVHGNSTEKEAIQLSKELMDVLKSAAPNSRPLYRNEHNPRRELQLNNGDEYVYRHLQKTHDVGCVEVTYQIGVQNTYDNAVVGLIDQLIREPAFNTLRTNEALGYIVWTGSRLNCGTVALNVIVQGPKSVDHVLERIEVFLESVRKEIAEMPQEEFDNQVSGMIARLEEKPKTLSSRFRRFWNEIECRQYNFARREEEVALLKTIKKDDVLELFDKKIRKDAAERRKLAVFVHGKNEDQEAVNTIIKKNAESGKKEKEVLYSDQLRQFLPLYGRPIAAIDLKPIGVDPLEHQETTKSKY”: the “soluble on expression in E. coli” value was “not soluble”.

In the case of “MSLSLYQSVRAVANARGGETEWIDWRATAEAAKQARDQGALTLDDAERRAYATDVRDARSRLRTVGGLEFDIPQTIEVQNRHHWIDANIKTFERMLDPIDIATLIDDTNALNGPSGYATRMVNTGSMAAALAFLSGNVLGQYDPQLLSQTTDTIETNENNHELYFVHPNIVDVAAELDVEYPRFRRWIAFHEVAHAAEFGAAPWLRTHIEDRIESGLEALTGGRLDRSAFSDVDIVMTAVEGYAELLMDRAFDKEYADLRAKLDARRGGGGPVAQLFRRLLGLGVKERQYERGAQFFETIADQRGVKAAATVWEDPRYLPDESELDNPQYWIDRVNEGHHHHHH”, the “soluble on expression in E. coli” value is “not soluble”.

“MSLSNISLTTLGGVRENGKNMYIAEIGESIFVLNVGLKYPENEQLGVDVVIPNMDYLFENSDRIAGVFLTHGHADAIGALPYLLAEAKVPVFGSELTIELAKLFVKGNDAVKKFNDFHVIDENTEIDFGGTVVSFFPTTYSVPESLGIVLKTSEGSIVYTGDFKFDQTASESYATDFARLAEIGRDGVLALLSDSANADSNIQVASESEVRDEITQTIADWEGRIIVAAVSSNLSRIQQIFDAADKTGRRIVLTGFDIENIVRTAIRLKKLSLANEILLIKPKDMSRFEDHELIILETGRMGEPINGLRKMSIGRHRYVEIKDGDLVYIATAPSIAKEAFVARVENMIYQAGGVVKLITQSLHVSGHGNVRDLQLMINLLQPKYLFPVQGEYRELDAHAKAAMAVGMLPERIFIPKKGTTMAYENGDFVPAGSVSAGDILIDGNAIGDVGNVVLRDRKVLSEDGIFIVAITVNRREKKIVARARVHTRGFVYLKKSRDILRESSELINQTVEEYLQGDDFDWADLKGKVRDNLTKYLFDQTKRRPAILPVVMEAEGHHHHHH”: the “soluble on expression in E. coli” value is recorded as “not soluble”.

With “MSLSNYISIKGAKVNNLKNIDVNIPRNKLVVITGLSGSGKSSLAFDTLYAEGQRRYVESLSSYARQFLGRMSKPECDFIKGIPPAIAIEQKVNSRNPRSTVGTSTEIYEYLRLLYARVGKTYSPISGQLVKKHSIEDIVNCMLSFPKGTKYTVLTPMMPREGRTLLQQLEMDLKQGFTRIEVNREIVRIEDFLQQTAAEDKKQNIYLLVDRMTADDSKDSISRLTDSAETAMYEGDGNCLLRFYSADGSTQLFSFSTKFETDGIKFEEPNDQMFSFNSPLGACPECEGFGKVIGIDEHLVIPNRALSVYDGAVLCWRGEKMGEWLQEFIHEAPAHDFPIFAPYYELTQEQKDYLWHGPRNKACIDSFFKMLEENQYKIQYRVMLARYRGKTICPVCHGTRLKKEAGYVKVGGKSISQLVDLPIHDLKEFFRTLELDAHDTAIAKRILTEITNRINFLMDVGLGYLTLNRLSNSLSGGESQRINLATSLGSSLVGSLYILDEPSIGLHSRDTDRLIKVLRQLQELGNTVVVVEHDEEIIRAADYIIDIGPQAGRLGGQIVYQGNMNDLQRNSNSYTVRYLLGEEGHHHHHH”, the “soluble on expression in E. coli” value is listed as “not soluble”.

In the case of “MSLSPEGVNGNRCSESFPLLEKYRIGKVIGDGNFAVVKECVDRYTGKEFALKIIDKAKCCGKEHLIENEVSILRRVKHPNIIMLVEEMETATDLFLVMELVKGGDLFDAITSSTKYTERDGSAMVYNLANALRYLHSLSIVHRDIKPENLLVCEYPDGTKSLKLGDFGLATVVEGPLYTVCGTPTYVAPEIIAETGYGLKVDVWAAGVITYILLCGFPPFRSENNLQEDLFDQILAGKLEFPAPYWDNITDSAKELISQMLQVNVEARCTAGEILSHPWVSDDASQENNMQAEVTGKLKQHFNNALPKQNSTTTGVSVIMNTALDKEGQIFCSKLCQDSSRPSREGHHHHHH”, the “soluble on expression in E. coli” value is reported as “not soluble”.

In the case of “MSLSPFEHPFLSGLFGDSEIIELFSAKADIDAMIRFETALAQAEAEASIFADDEAEAIVSGLSEFAADMSALRHGVAKDGVVVPELIRQMRAAVAGQAADKVHFGATSQDVIDTSLMLRLKMAAEIIATRLGHLIDTLGDLASRDGHKPLTGYTRMQAAIGITVADRAAGWIAPLERHLLRLETFAQNGFALQFGGAAGTLEKLGDNAGAVRADLAKRLGLADRPQWHNQRDGIAEFANLLSLVTGTLGKFGQDIALMAEIGSEIRLSGGGGSSAMPHKQNPVNAETLVTLARFNAVQISALHQSLVQEQERSGAGWMLEWLTLPQMVTATGTSLLVAERLAAQIDRLGADESHHHHHH”, the “soluble on expression in E. coli” value is given as “soluble”.

Consider “MSLSPIAPYEIGYVHIDSCELCHADGKLVMFLAIDRVSKFTYVDFHDCAGKMEGAAFLRNVVEAFPYQIHIVLTDNGMAFADLPKNRNGPSRRFFGPHIFDRVCIEHGIEHRLTKPYHPWTNGQAERMNRTIKDATIKAYHYDDLESLKAHVLAFVTAYNFAKHLKALRWRTPYQAICDARTKDPSIFKIDPHHLTQGPHTLSEGHHHHHH”, for which the “soluble on expression in E. coli” value is recorded as “not soluble”.

For “MSLSRSLSECIDQGRGLVPADLVLKHGRVFDLVTGELVQTDVAICGDRIVGTFGTYTGRREIDCRGRILVPGFIDTHLHVESSLVTPFEFDRCVTPRGITTAICDPHEIANVCGLEGIRYFLEASAHLVMDLRVQLSSCVPSTHMETAGAALEAKDLAPLMDHPRVIGLAEFMNFPGVLMKDPGCMAKLEAFRGRHIDGHAPLLRGKDLNGYIAAGIRTEHEATTAEEALEKLRKGMRVLIREGSVSKDLHALVSILTERHAPYLCLCTDDRNPLDIAEHGHIDHMIRTAIRLGAPPLAVYRAASLSAADAFGLKDRGLIAPGRRADIAVLDSLEGCHAALVLAGGVVADDAAFSARSDIEPVARASVKVAEIAPEAFRCPGNRADTPVIGILPGKIITEHLTAEIEPVDGDKRPDPVRDLARIAVIERHGKTGGRATGFVRGFGMARGAIASTVCHDHHNLAVVGIDYADMALAANRLRALEGGFAVAAGGEILAELALPVGGLMSLRPFEEVRDALVTLREAARSLGVTLEEPFLQLAFLALPVIPHLKITDRGMVDVDRFEILEGHHHHHH”, the “soluble on expression in E. coli” value is given as “soluble”.

As to “MSLSSGGGQFIKPASGILTSGFSERTNPVTGKYESHKGQDIAGGGTVTVSAAASGTVVFSGFGASGSGFGGYGYVVKIDHGNGFQTLYGHMRAGSLKVVTGQQVSQGQPIGIMGSTGQSTGQHLHFEIHKNGIPVDPAPYIEGHHHHHH”, the “soluble on expression in E. coli” value is on record as “soluble”.

For “MSLSSKLRLQLDAHASIHENVRRLLQFTTSIMEANEEGIRKDIDSEFLHDFRVAIRRSRSILRLLNGVFDPEKTAWMLAGLRELGKRTNDLRDSDVYLLRREEYTSLLPPSLRPALDPFFSDLEADKRLHHRQFCRYLTGREYSGFMTSLKEFIAEGELPDPETAPLAAEPTGDVAAKTIRKALKKVLVHGRRTGSETSDAELHELRIDCKKLRYLLEFFASLFPPKATAQVLRQMKTLQDNLGTFVDLTVQMEFLQSRLETIPADRGGISEAAAIGGLLTTLYRKREKVREHFHEIFSGFDSNETGELFDELLTGLAEGHHHHHH”, the “soluble on expression in E. coli” value is given as “soluble”.

The values are drawn from the DeepSol protein solubility set.
